B1: She1-HaloTag^TMR (wild-type She1) (natural protein, budding yeast, UniProt P38200 1-338, looked up)
chain: MNDKLQEEHNEKDTTSQINGFTPPHMSIDFHSNNNSNIIETIGVSKRLGNSVLSELDSRASSKFEFLKDQSEQQYNGDKNNEPKSGSYNINEFFQAKHDSQFGQMESLDTHYTLLHTPKRKSQHAIPQDRSDSMKRSRPSRSIPYTTPVVNDITRRIRRLKLRNSLVNGNDIVARARSMQANSNINSIKNTPLSKPKPFMHKPNFLMPTTNSLNKINSAHRNTSSSSTASSIPRSKVHRSISIRDLHAKTKPVERTPVAQGTNSQLKNSVSVFDRLYKQTTFSRSTSMNNLSSGTSAKSKEHTNVKTRLVKSKTSGSLSSNLKQSTATGTKSDRPIWR
modifications: HaloTag-TMR ligand on the HaloTag
B2: She1-NLS^SV40-HaloTag (other)
chain: MNDKLQEEHNEKDTTSQINGFTPPHMSIDFHSNNNSNIIETIGVSKRLGNSVLSELDSRASSKFEFLKDQSEQQYNGDKNNEPKSGSYNINEFFQAKHDSQFGQMESLDTHYTLLHTPKRKSQHAIPQDRSDSMKRSRPSRSIPYTTPVVNDITRRIRRLKLRNSLVNGNDIVARARSMQANSNINSIKNTPLSKPKPFMHKPNFLMPTTNSLNKINSAHRNTSSSSTASSIPRSKVHRSISIRDLHAKTKPVERTPVAQGTNSQLKNSVSVFDRLYKQTTFSRSTSMNNLSSGTSAKSKEHTNVKTRLVKSKTSGSLSSNLKQSTATGTKSDRPIWRGSGSAAAPKKKRKVG
modifications: HaloTag-TMR ligand on the HaloTag

Biological target: yeast microtubules (assembled from tubulin purified from yeast, Tub1/Tub2-6His) (yeast, UniProt P09733 1-447; P02557 1-457)
Sequence (P09733 whole entry, chain 1 of 2): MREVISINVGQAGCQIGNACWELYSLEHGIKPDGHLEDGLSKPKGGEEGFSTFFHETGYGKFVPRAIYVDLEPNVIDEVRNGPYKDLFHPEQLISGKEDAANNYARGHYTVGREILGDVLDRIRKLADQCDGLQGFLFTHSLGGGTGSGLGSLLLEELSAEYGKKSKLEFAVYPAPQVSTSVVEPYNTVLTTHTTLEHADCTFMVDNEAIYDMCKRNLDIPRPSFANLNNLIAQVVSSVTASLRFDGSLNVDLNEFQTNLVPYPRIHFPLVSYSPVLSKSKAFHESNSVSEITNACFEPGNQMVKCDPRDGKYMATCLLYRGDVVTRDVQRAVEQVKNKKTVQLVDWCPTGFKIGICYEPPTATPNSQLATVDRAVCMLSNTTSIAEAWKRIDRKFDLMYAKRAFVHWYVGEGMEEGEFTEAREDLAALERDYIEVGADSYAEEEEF
Sequence (P02557 whole entry, chain 2 of 2): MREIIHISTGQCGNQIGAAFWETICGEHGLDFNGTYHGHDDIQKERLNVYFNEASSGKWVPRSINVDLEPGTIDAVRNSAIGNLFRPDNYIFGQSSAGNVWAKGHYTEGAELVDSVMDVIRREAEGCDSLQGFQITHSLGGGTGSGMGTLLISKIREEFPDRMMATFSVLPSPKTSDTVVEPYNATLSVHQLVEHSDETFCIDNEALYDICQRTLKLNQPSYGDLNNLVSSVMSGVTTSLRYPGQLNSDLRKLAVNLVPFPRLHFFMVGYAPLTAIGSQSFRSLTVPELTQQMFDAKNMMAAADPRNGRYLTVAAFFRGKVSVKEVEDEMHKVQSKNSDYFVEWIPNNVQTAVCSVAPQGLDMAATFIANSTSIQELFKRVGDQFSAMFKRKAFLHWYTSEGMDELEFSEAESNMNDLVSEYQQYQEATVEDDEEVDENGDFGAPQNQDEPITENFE
Experiment: TIRF microscopy-based microtubule-binding assay

Binder | Kd
B1 | 854 nM
B2 | 806 nM
